Test results published in paper PMC4204884.
Like-named read-outs stand apart in the source and are kept apart here.

Assays:
Cdc5-R1-R2-D3ΔL [1] = biological target: T1, Cdc5-R1-R2-D3ΔL (Schizosaccharomyces pombe, UniProt P39964 5-208, del111-146); test: pull-down
Cdc5-R1-R2-D3ΔL [2] = biological target: T1, Cdc5-R1-R2-D3ΔL; test: pull-down; remark: listed apart in the source

Binder	binding result (Cdc5-R1-R2-D3ΔL [1])	binding result (Cdc5-R1-R2-D3ΔL [2])
AAGUGUAG (ssRNA) [Bi-U2 ssRNA]	binds	
CAGAGAA (ssRNA) [Bi-U6 ssRNA]	binds	
CGUACACCAUCAGGGUACG (structured_RNA) [Bi-MS2 dsRNA]		binds
